Data as given in patent US12365710B2, “HMGB1 protein derivatives for the removal of biofilms” (RESEARCH INSTITUTE AT NATIONWIDE CHILDREN'S HOSPITAL, priority 2018, dated 2025).
Like-named read-outs stand apart in the source and are kept apart here.

Tests used:
[1] = test system: NTHI biofilms; type: in vivo, chinchilla; conditions: for reduction in CFU of NTHI: 0.2 nmol to middle ear at days 4 and 5 post-challenge, day 6, vs diluent
Procedure: FIGS. 8A-8F: rHMGB1 and mHMGB1 promote biofilm resolution in an experimental otitis media model. Diluent, 0.2 nmol rHMGB1, or 0.2 nmol mHMGB1 were delivered directly to middle ears of chinchillas at 4 and 5 days post-challenge with NTHI. Animals were sacrificed 24 h later, middle ears were imaged (FIG. 8C, representative images) and, based on the criteria described in (FIG. 8A, biofilm) and (FIG. 8B, inflammation), blindly scored for presence of biofilm (FIG. 8D) and inflammation (FIG. 8F). CFU of NTH1 present in the mucosal biomass were quantified (FIG. 8E). Means and SEM are plotted. **P<0.01, ****P<0.0001.
rHMGB1 and mHMGB1 disrupt biofilms in two distinct animal models but the inflammatory response is strongly attenuated with Cys to Ser mutations: Applicant tested both rHMGB1 and mHMGB1 for their ability to treat middle ear infection and the corresponding inflammatory response using a well-established chinchilla model of experimental OM due to NTHI49,67,68 wherein adhered mucosal biofilm formation plays a key role in pathogenesis (FIG. 8A). The middle ear of mixed sex, outbred adult chinchillas were inoculated with 1000 CFU NTHI by transbullar injection. At days 4 and 5 post-challenge, at which time there is abundant biofilm present in the middle ear space, […] of rHMGB1, mHMGB1, or diluent was delivered directly to the middle ear (2 total treatments). On day 6, animals were sacrificed and middle ears were imaged and blindly scored for biofilm that remained (FIG. 8A) and mucosal inflammation (FIG. 8B). […] In contrast, MEFs from mHMGB1-treated animals had increased anti-inflammatory cytokines [IL-4 (2-fold), IL-10 (5-fold)] […] Next, Applicant determined whether rHMGB1 or mHMGB1 could prevent or […] biofilm development. For prevention, adult C57BL/6 mice were challenged with 10^7 CFU of Bc intratracheally (i.t.), and 0.2 nmol of rHMGB1 or mHMGB1 was added simultaneously. After 18 h, mice were euthanized, and bronchoalveolar lavage (BAL) and lungs were collected. Bc formed aggregates that were readily visible in lung sections probed with Bc antibody (FIG. 7A). Tissue was homogenized and CFUs were enumerated. […] This same animal model was then used to investigate lung damage 72 h post-challenge with Bc and administration of rHMGB1 or mHMGB1. Lungs were collected and tissue was fixed, embedded in paraffin, sectioned, and stained with Haematoxylin and Eosin (H&E). […] Next, Applicant assessed the ability of rHMGB1 and mHMGB1 to treat established Bc infection. Mice were challenged as above and 0.2 nmol rHMGB1 or mHMGB1 was administered 24 h later. 48 h after treatment, mice were euthanized and BAL and lungs were collected and processed as above. […]

[2] = test system: B. cenocepacia; type: in vivo, C57BL/6 mice; conditions: 0.2 nmol administered 24 h after challenge, collected 48 h after treatment
Procedure: FIGS. 7A-7G: HMGB1 promotes clearance of S. cenocepaca from mice without inducing sepsis. C57BL/6 mice were challenged with 10^7 CFU intratracheally, and either simultaneously (prevention) or 24 h later (treatment) received 0.2 nmol of HMGB1 valiant. (FIG. 7A) Aggregates of B. cenocepacia were visible by fluorescence microscopy in lung sections probed with an α-B. cenocepacia antibody. For prevention, (FIG. 7B) bronchoalveolar lavage (BAL) collected 18 h post-inoculation (hpi) was analyzed for CFU. (FIG. 7C) Neutrophils in BAL were quantified by differential cell counting. (FIG. 7D) Lung tissue collected 72hpi was fixed, embedded, sectioned, and stained with hematoxylin & eosin (10× magnification). For treatment, 72hpi (FIG. 7E) CFUs were quantified in BAL. (FIG. 7F) Neutrophil recruitment was analyzed 24 h after intraperitoneal (i.p.) administration of HMGB1 valiants by fluorescence-activated cell sorting of peritoneal lavage stained with α-CD45, α-CD11b, and αLy-6G. (FIG. 7G) Serum TNF-α. was measured by ELISA in mice injected i.p. with 0.2 nmol HMGB1 valiants, 5 mg/kg LPS, or both. LoD: limit of detection. Bars represent SD. *P<0.05.
rHMGB1 and mHMGB1 disrupt biofilms in two distinct animal models but the inflammatory response is strongly attenuated with Cys to Ser mutations: Applicant tested both rHMGB1 and mHMGB1 for their ability to treat middle ear infection and the corresponding inflammatory response using a well-established chinchilla model of experimental OM due to NTHI49,67,68 wherein adhered mucosal biofilm formation plays a key role in pathogenesis (FIG. 8A). […] On day 6, animals were sacrificed and middle ears were imaged and blindly scored for biofilm that remained (FIG. 8A) and mucosal inflammation (FIG. 8B). […] Next, Applicant determined whether rHMGB1 or mHMGB1 could prevent or aggregate biofilm development. […] Bc formed aggregates that were readily visible in lung sections probed with Bc antibody (FIG. 7A). […] Next, Applicant assessed the ability of rHMGB1 and mHMGB1 to treat established Bc infection. […]

“rHMGB1: tagless human recombinant full length HMGB1 (1-215) expressed in E. coli” was tested, and the “reduction in CFU of NTHI” value [1] was roughly 1000 fold, the “increased IL-1β in middle ear fluids” value ([1]; in vivo) was 3 fold and the “increased IL-17A in middle ear fluids” value ([1]; in vivo) was 2 fold. The “Bc CFU in lungs / BAL” value [2] was “significantly fewer Bc in their lungs” and the “Bc CFU in lungs / BAL” value ([2]; listed as HMGB1) was “significantly decreased”.

B1: mHMGB1: engineered C45S variant of full length rHMGB1 that mimics the reduced form of HMGB1 (protein, UniProt P09429 1-215, looked up, variant C45S)
chain: MGKGDPKKPRGKMSSYAFFVQTCREEHKKKHPDASVNFSEFSKKSSERWKTMSAKEKGKFEDMAKADKARYEREMKTYIPPKGETKKKFKDPNAPKRPPSAFFLFCSEYRPKIKGEHPGLSIGDVAKKLGEMWNNTAADDKQPYEKKAAKLKEKYEKDIAAYRAKGKPDAAKKGVVKAEKSKKKKEEEEDEEDEEDEEEEEDEEDEDEEEDDDDE
modifications: full-length
notes: engineered C45S variant of full length rHMGB1 that mimics the reduced form of HMGB1
B1 was tested, and the “reduction in CFU of NTHI” value [1] was roughly 1000 fold and the “Bc CFU in lungs / BAL” value [2] was “significantly fewer Bc in their lungs”.
